The values below come from paper PMC3787845.

Experiment [1] addresses His6-ChpT (Caulobacter crescentus). Description: SEC. A general note: SEC sorts molecules by how far they enter the pores of the column.
For experiment [2], the target named is His6-ChpT-A41R (Caulobacter crescentus). Description: SEC.
Experiment [3] addresses His6-ChpT-D47A (Caulobacter crescentus). Description: SEC.
In experiment [4] the target is His6-ChpT-D60A (Caulobacter crescentus). Description: SEC.
In experiment [5] the target is His6-ChpT-G45R (Caulobacter crescentus). Description: SEC.
The target of experiment [6] is His6-ChpT-L48M (Caulobacter crescentus). Nature of the experiment: SEC.
In experiment [7] the target is His6-ChpT-L64D (Caulobacter crescentus). Nature of the experiment: SEC.
For experiment [8], the target named is His6-ChpT-N63R (Caulobacter crescentus). Description: SEC.
The target of experiment [9] is His6-ChpT-S40V (Caulobacter crescentus). Description: SEC.
In experiment [10] the target is His6-ChpT-S44Y (Caulobacter crescentus). Nature of the experiment: SEC.
In experiment [11] the target is His6-ChpT-A41R (Caulobacter crescentus). Description: SPR.

One may read the stoichiometry N as the number of molecules, sites or subunits per partner or assembly. His6-ChpT (natural protein) showed a stoichiometry N in [1] of 2.
With His6-ChpT-A41R (natural protein), in experiment [2], the stoichiometry N is 2.
In the case of His6-ChpT-D47A (natural protein), the stoichiometry N in experiment [3] is 2.
His6-ChpT-D60A (natural protein) displayed a stoichiometry N in experiment [4] of 2.
For His6-ChpT-G45R (natural protein), the stoichiometry N in experiment [5] is 2.
Take His6-ChpT-L48M (natural protein): the stoichiometry N in [6] amounted to 2.
For His6-ChpT-L64D (natural protein), the stoichiometry N in [7] came out at 2.
His6-ChpT-N63R (natural protein) returned a stoichiometry N in [8] of 2.
For His6-ChpT-S40V (natural protein), in experiment [9], the stoichiometry N is 2.
Take His6-ChpT-S44Y (natural protein): in experiment [10], the stoichiometry N worked out at 2.

B1: CckA receiver domain (CckA-RD, amino acids 571–691) (domain or fragment)
chain: GRILFVEDEDAVRSVAARLLRARGYEVLEAADGEEALIIAEENAGTIDLLISDVIMPGIDGPTLLKKARGYLGTAPVMFISGYAEAEFSDLLEGETGVTFLPKPIDIKTLAERVKQQLQAA
Usually Kd stands for the equilibrium constant for the complex coming apart. A higher Kd goes with lower affinity. In turn, B1 yielded a Kd in experiment [11] of 397 µM.
